The values that follow come from publication doi:10.1101/2023.04.06.535761 (bioRxiv, 2023).

The target of assay [1] is T1, StrepII-GFP-RTCB (human, UniProt Q9Y3I0 1-505).
T1 sequence (looked up): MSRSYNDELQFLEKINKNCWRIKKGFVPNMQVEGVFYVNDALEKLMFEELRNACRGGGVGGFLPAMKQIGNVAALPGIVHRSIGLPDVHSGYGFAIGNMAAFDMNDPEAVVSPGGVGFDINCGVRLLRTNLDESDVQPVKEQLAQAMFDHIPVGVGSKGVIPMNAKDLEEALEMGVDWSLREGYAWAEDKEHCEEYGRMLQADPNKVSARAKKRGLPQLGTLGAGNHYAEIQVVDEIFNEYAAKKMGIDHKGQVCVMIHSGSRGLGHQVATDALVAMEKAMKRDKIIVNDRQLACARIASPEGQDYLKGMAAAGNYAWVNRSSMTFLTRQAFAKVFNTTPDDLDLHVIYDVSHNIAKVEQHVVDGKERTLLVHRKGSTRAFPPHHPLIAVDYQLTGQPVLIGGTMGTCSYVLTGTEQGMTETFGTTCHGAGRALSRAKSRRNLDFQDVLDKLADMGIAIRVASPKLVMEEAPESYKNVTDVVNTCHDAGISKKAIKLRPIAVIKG
The assay can be described thus: pull-down.

Assay [2] has as its target T2, RTCB (un-guanylylated, apo-RTCB) (human, UniProt Q9Y3I0 1-505).
T2 sequence (looked up): T1 sequence (looked up)
The assay can be described thus: cryo-EM structure.

Assay [3] concerns the target T1, StrepII-GFP-RTCB. As to the kind of experiment: pull-down. This is another data set of the same source.

Positions count from the first letter of the chain named. In names and notes the source's numbering stands.

A word on the stoichiometry N: it is a count of units in the complex or per binding partner.

B1: PYROXD1 (wild type) (enzyme, human, UniProt Q8WU10 1-500, looked up)
chain: MEAARPPPTAGKFVVVGGGIAGVTCAEQLATHFPSEDILLVTASPVIKAVTNFKQISKILEEFDVEEQSSTMLGKRFPNIKVIESGVKQLKSEEHCIVTEDGNQHVYKKLCLCAGAKPKLICEGNPYVLGIRDTDSAQEFQKQLTKAKRIMIIGNGGIALELVYEIEGCEVIWAIKDKAIGNTFFDAGAAEFLTSKLIAEKSEAKIAHKRTRYTTEGRKKEARSKSKADNVGSALGPDWHEGLNLKGTKEFSHKIHLETMCEVKKIYLQDEFRILKKKSFTFPRDHKSVTADTEMWPVYVELTNEKIYGCDFIVSATGVTPNVEPFLHGNSFDLGEDGGLKVDDHMHTSLPDIYAAGDICTTSWQLSPVWQQMRLWTQARQMGWYAAKCMAAASSGDSIDMDFSFELFAHVTKFFNYKVVLLGKYNAQGLGSDHELMLRCTKGREYIKVVMQNGRMMGAVLIGETDLEETFENLILNQMNLSSYGEDLLDPNIDIEDYFD
For B1, the “half-life of the complex upon NADH removal” value with StrepII-GFP-RTCB [1] is about 2 min. In addition, the “stoichiometry N” value in assay [2] is 1.

B2: PYROXD1 D500A (enzyme, human, UniProt Q8WU10 1-500, looked up)
chain: B1 chain with D500A
As for B2, the binding result in the assay with StrepII-GFP-RTCB [3] was “binds”.

B3: PYROXD1 Δ500 (domain or fragment, human, UniProt Q8WU10 1-499, looked up)
chain: MEAARPPPTAGKFVVVGGGIAGVTCAEQLATHFPSEDILLVTASPVIKAVTNFKQISKILEEFDVEEQSSTMLGKRFPNIKVIESGVKQLKSEEHCIVTEDGNQHVYKKLCLCAGAKPKLICEGNPYVLGIRDTDSAQEFQKQLTKAKRIMIIGNGGIALELVYEIEGCEVIWAIKDKAIGNTFFDAGAAEFLTSKLIAEKSEAKIAHKRTRYTTEGRKKEARSKSKADNVGSALGPDWHEGLNLKGTKEFSHKIHLETMCEVKKIYLQDEFRILKKKSFTFPRDHKSVTADTEMWPVYVELTNEKIYGCDFIVSATGVTPNVEPFLHGNSFDLGEDGGLKVDDHMHTSLPDIYAAGDICTTSWQLSPVWQQMRLWTQARQMGWYAAKCMAAASSGDSIDMDFSFELFAHVTKFFNYKVVLLGKYNAQGLGSDHELMLRCTKGREYIKVVMQNGRMMGAVLIGETDLEETFENLILNQMNLSSYGEDLLDPNIDIEDYF
With B3, in the assay with StrepII-GFP-RTCB [3], the binding result was “binds”.
